Test results taken from patent publication US20220298260A1 (MYTHIC THERAPEUTICS, published 2022).
Residue numbers refer to the chain shown, from its start.

B1: MYT0621 (antibody, V domains shown)
VH: QVQLVQSGAEVVKPGASVKISCKASGYTFTGYFMNWVKQSPGQSLEWIGRIHPYDGDTFYHQKFQGKATLTVDKSSNTAHMELLSLTSEDFAVYYCTRYDGSRAMDYWGQGTTVTVSS
VL: DIVLTQSPLSLAVSLGQPAIISCKASQSVSFAGTSLMHWYHQKPGQQPRLLIYRASNLEAGVPDRFSGSGSKTDFTLTISPVEAEDAATYYCQQSREYPYTFGGGTKLEIK
notes: IgG
B2: MYT0622 (antibody, V domains shown)
VH: B1 VH with H61N, Q62H
VL: B1 VL
notes: IgG
B3: MYT0623 (antibody, V domains shown)
VH: B1 VH with H61N, K63H
VL: B1 VL
notes: IgG
B4: MYT0624 (antibody, V domains shown)
VH: B1 VH with H61N, F64H
VL: B1 VL
notes: IgG
B5: MYT0625 (antibody, V domains shown)
VH: B1 VH with H61N, Q65H
VL: B1 VL
notes: IgG
B6: MYT0626 (antibody, V domains shown)
VH: B1 VH with H61N, G66H
VL: B1 VL
notes: IgG
B7: MYT0627 (antibody, V domains shown)
VH: B1 VH with H61N, T97H
VL: B1 VL
notes: IgG
B8: MYT0628 (antibody, V domains shown)
VH: B1 VH with H61N, R98H
VL: B1 VL
notes: IgG
B9: MYT0629 (antibody, V domains shown)
VH: B1 VH with H61N, Y99H
VL: B1 VL
notes: IgG
B10: MYT0630 (antibody, V domains shown)
VH: B1 VH with H61N, D100H
VL: B1 VL
notes: IgG
B11: MYT0632 (antibody, V domains shown)
VH: B1 VH with H61N, S102H
VL: B1 VL
notes: IgG
B12: MYT0633 (antibody, V domains shown)
VH: B1 VH with H61N, R103H
VL: B1 VL
notes: IgG
B13: MYT0635 (antibody, V domains shown)
VH: B1 VH with H61N, M105H
VL: B1 VL
notes: IgG
B14: MYT0636 (antibody, V domains shown)
VH: B1 VH with H61N, D106H
VL: B1 VL
notes: IgG
B15: MYT0637 (antibody, V domains shown)
VH: B1 VH with H61N, Y107H
VL: B1 VL
notes: IgG
B16: MYT1155 (antibody, V domains shown)
VH: B1 VH with A24H, Y54H, T58H, H61N
VL: B1 VL
notes: IgG
B17: MYT1156 (antibody, V domains shown)
VH: B1 VH with A24H, Y54H, F59H, H61N
VL: B1 VL
notes: IgG
B18: MYT1157 (antibody, V domains shown)
VH: B1 VH with A24H, T58H, F59H, H61N
VL: B1 VL
notes: IgG
B19: MYT1158 (antibody, V domains shown)
VH: B1 VH with Y27H, Y54H, T58H, H61N
VL: B1 VL
notes: IgG
B20: MYT1159 (antibody, V domains shown)
VH: B1 VH with Y27H, Y54H, F59H, H61N
VL: B1 VL
notes: IgG
B21: MYT1160 (antibody, V domains shown)
VH: B1 VH with Y27H, T58H, F59H, H61N
VL: B1 VL
notes: IgG
B22: MYT1559 (antibody, V domains shown)
VH: B1 VH with H61N
VL: B1 VL with K24H
notes: IgG
B23: MYT1561 (antibody, V domains shown)
VH: B1 VH with H61N
VL: B1 VL with S26H
notes: IgG
B24: MYT1562 (antibody, V domains shown)
VH: B1 VH with H61N
VL: B1 VL with Q27H
notes: IgG
B25: MYT1563 (antibody, V domains shown)
VH: B1 VH with H61N
VL: B1 VL with S28H
notes: IgG
B26: MYT1565 (antibody, V domains shown)
VH: B1 VH with H61N
VL: B1 VL with S30H
notes: IgG
B27: MYT1566 (antibody, V domains shown)
VH: B1 VH with H61N
VL: B1 VL with F31H
notes: IgG
B28: MYT1567 (antibody, V domains shown)
VH: B1 VH with H61N
VL: B1 VL with A32H
notes: IgG
B29: MYT1568 (antibody, V domains shown)
VH: B1 VH with H61N
VL: B1 VL with G33H
notes: IgG
B30: MYT1569 (antibody, V domains shown)
VH: B1 VH with H61N
VL: B1 VL with T34H
notes: IgG
B31: MYT1570 (antibody, V domains shown)
VH: B1 VH with H61N
VL: B1 VL with S35H
notes: IgG
B32: MYT1571 (antibody, V domains shown)
VH: B1 VH with H61N
VL: B1 VL with L36H
notes: IgG
B33: MYT1573 (antibody, V domains shown)
VH: B1 VH with H61N
VL: B1 VL with H38A
notes: IgG
B34: MYT1574 (antibody, V domains shown)
VH: B1 VH with H61N
VL: B1 VL with R54H
notes: IgG
B35: MYT1575 (antibody, V domains shown)
VH: B1 VH with H61N
VL: B1 VL with A55H
notes: IgG
B36: MYT1576 (antibody, V domains shown)
VH: B1 VH with H61N
VL: B1 VL with S56H
notes: IgG
B37: MYT1577 (antibody, V domains shown)
VH: B1 VH with H61N
VL: B1 VL with N57H
notes: IgG
B38: MYT1578 (antibody, V domains shown)
VH: B1 VH with H61N
VL: B1 VL with L58H
notes: IgG
B39: MYT1579 (antibody, V domains shown)
VH: B1 VH with H61N
VL: B1 VL with E59H
notes: IgG
B40: MYT1580 (antibody, V domains shown)
VH: B1 VH with H61N
VL: B1 VL with A60H
notes: IgG
B41: MYT1581 (antibody, V domains shown)
VH: B1 VH with H61N
VL: B1 VL with Q93H
notes: IgG
B42: MYT1582 (antibody, V domains shown)
VH: B1 VH with H61N
VL: B1 VL with Q94H
notes: IgG
B43: MYT1583 (antibody, V domains shown)
VH: B1 VH with H61N
VL: B1 VL with S95H
notes: IgG
B44: MYT1584 (antibody, V domains shown)
VH: B1 VH with H61N
VL: B1 VL with R96H
notes: IgG
B45: MYT1585 (antibody, V domains shown)
VH: B1 VH with H61N
VL: B1 VL with E97H
notes: IgG
B46: MYT1586 (antibody, V domains shown)
VH: B1 VH with H61N
VL: B1 VL with Y98H
notes: IgG

What follows are binders tested against T1, FOLR1 (R&D Systems, Cat #5646-FR) (human, UniProt P15328 25-233) (assay: BLI, IgG on anti-human Fc sensor, 50 nM FOLR1).
T1 construct: Bought soluble protein; also called Folate Receptor 1
T1 sequence (P15328 25-233 limits assumed): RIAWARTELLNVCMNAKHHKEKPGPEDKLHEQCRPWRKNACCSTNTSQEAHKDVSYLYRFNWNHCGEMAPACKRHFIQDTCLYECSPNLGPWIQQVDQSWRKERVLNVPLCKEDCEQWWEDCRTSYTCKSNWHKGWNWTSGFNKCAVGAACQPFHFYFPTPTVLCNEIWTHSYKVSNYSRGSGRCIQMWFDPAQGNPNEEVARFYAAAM

Binding result, binds:
B1
B2
B3
B4
B5
B6
B7
B8
B9
B10
B11
B12
B13
B14
B15
B16
B17
B18
B19
B20
B21
B22
B23
B24
B25
B26
B27
B28
B29
B30
B31
B32
B33
B34
B35
B36
B37
B38
B39
B40
B41
B42
B43
B44
B45
B46
